Laboratory results published in patent US20140274782A1, “AFFINITY REAGENTS AND METHODS FOR DETECTION, PURIFICATION, AND PROTEOMIC ANALYSIS OF METHYLATED PROTEINS” (The Board of Trustees of the Leland Stanford Junior …, priority 2013, published 2014).

T1: G9a and GLP (Homo sapiens, UniProt Q96KQ7+Q9H9B1)
T1 sequence (Q96KQ7 2-1210 limits assumed): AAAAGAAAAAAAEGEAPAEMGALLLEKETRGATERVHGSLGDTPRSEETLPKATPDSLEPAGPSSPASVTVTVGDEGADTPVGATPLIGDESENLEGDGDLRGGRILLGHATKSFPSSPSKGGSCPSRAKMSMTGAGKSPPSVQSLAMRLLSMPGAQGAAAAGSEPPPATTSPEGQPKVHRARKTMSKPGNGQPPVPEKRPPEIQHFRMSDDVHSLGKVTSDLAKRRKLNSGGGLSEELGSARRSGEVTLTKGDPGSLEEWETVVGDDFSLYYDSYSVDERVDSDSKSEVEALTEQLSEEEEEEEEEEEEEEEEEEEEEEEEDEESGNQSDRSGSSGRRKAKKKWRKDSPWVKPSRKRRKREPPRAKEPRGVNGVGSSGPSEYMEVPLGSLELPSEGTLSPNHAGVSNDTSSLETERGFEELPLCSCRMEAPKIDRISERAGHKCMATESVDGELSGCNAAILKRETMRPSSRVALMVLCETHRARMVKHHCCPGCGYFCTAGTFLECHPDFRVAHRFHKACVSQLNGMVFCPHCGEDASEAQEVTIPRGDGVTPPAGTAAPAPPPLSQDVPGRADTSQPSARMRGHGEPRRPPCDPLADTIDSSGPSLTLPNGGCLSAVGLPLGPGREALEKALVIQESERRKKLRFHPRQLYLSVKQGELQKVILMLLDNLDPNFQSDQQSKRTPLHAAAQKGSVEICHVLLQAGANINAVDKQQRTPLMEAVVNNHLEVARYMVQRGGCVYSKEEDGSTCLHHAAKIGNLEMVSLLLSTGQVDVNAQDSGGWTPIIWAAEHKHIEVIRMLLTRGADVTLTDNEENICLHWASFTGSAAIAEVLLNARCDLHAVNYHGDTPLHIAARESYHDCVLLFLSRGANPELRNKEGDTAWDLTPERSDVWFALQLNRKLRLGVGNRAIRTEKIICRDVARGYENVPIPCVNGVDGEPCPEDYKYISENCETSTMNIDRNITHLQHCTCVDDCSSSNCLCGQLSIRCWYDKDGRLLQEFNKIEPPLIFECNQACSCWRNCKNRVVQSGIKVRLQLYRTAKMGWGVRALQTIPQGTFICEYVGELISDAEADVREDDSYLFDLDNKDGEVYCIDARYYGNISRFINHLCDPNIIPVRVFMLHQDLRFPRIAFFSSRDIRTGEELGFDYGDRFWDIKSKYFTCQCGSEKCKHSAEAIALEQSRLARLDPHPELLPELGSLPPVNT
T1 sequence (Q9H9B1 2-1298 limits assumed): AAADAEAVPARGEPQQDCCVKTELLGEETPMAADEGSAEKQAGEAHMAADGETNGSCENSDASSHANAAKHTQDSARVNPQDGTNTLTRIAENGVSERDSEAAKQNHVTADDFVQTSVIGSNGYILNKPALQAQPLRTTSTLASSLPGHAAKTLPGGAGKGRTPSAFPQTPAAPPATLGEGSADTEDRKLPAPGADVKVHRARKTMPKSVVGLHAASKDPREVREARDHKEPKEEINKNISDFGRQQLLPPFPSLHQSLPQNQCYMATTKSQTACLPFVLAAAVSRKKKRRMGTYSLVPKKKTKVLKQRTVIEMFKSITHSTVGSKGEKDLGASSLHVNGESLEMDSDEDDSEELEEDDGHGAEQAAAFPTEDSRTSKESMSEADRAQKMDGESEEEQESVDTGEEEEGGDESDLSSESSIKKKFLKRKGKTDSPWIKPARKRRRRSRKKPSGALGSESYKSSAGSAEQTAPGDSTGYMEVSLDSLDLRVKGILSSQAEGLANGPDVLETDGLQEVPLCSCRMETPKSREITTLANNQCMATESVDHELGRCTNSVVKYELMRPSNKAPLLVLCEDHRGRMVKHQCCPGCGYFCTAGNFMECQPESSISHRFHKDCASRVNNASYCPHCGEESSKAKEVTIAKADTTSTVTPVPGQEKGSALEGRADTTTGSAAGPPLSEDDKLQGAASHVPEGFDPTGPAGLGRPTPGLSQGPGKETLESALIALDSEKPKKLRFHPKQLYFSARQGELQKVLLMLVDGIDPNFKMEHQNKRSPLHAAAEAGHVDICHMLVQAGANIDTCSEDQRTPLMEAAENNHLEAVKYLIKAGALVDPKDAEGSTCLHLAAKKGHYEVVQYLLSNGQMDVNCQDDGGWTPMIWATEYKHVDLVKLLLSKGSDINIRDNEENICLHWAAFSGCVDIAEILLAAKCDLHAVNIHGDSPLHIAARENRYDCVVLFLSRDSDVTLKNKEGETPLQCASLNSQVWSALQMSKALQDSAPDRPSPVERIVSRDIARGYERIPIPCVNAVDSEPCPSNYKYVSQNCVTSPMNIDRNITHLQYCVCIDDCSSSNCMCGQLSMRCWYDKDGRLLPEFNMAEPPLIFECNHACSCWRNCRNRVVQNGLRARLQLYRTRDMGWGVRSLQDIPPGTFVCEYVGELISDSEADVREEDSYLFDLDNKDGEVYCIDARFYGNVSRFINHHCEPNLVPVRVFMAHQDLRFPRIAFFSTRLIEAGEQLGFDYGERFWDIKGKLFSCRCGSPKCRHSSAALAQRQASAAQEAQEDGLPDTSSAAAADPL

B1: PPP1CB (protein, UniProt P62140 2-327, looked up)
Serine/threonine-protein …: ADGELNVDSLITRLLEVRGCRPGKIVQMTEAEVRGLCIKSREIFLSQPILLELEAPLKICGDIHGQYTDLLRLFEYGGFPPEANYLFLGDYVDRGKQSLETICLLLAYKIKYPENFFLLRGNHECASINRIYGFYDECKRRFNIKLWKTFTDCFNCLPIAAIVDEKIFCCHGGLSPDLQSMEQIRRIMRPTDVPDTGLLCDLLWSDPDKDVQGWGENDRGVSFTFGADVVSKFLNRHDLDLICRAHQVVEDGYEFFAKRQLVTLFSAPNYCGEFDNAGGMMSVDETLMCSFQILKPSEKKAKYQYGGLNSGRPVTPPRTANPPKKR
B2: SAFB (protein, UniProt Q15424 2-915, looked up)
Scaffold attachment factor B1: AETLSGLGDSGAAGAAALSSASSETGTRRLSDLRVIDLRAELRKRNVDSSGNKSVLMERLKKAIEDEGGNPDEIEITSEGNKKTSKRSSKGRKPEEEGVEDNGLEENSGDGQEDVETSLENLQDIDIMDISVLDEAEIDNGSVADCVEDDDADNLQESLSDSRELVEGEMKELPEQLQEHAIEDKETINNLDTSSSDFTILQEIEEPSLEPENEKILDILGETCKSEPVKEESSELEQPFAQDTSSVGPDRKLAEEEDLFDSAHPEEGDLDLASESTAHAQSSKADSLLAVVKREPAEQPGDGERTDCEPVGLEPAVEQSSAASELAEASSEELAEAPTEAPSPEARDSKEDGRKFDFDACNEVPPAPKESSTSEGADQKMSSPEDDSDTKRLSKEEKGRSSCGRNFWVSGLSSTTRATDLKNLFSKYGKVVGAKVVTNARSPGARCYGFVTMSTAEEATKCINHLHKTELHGKMISVEKAKNEPVGKKTSDKRDSDGKKEKSSNSDRSTNLKRDDKCDRKDDAKKGDDGSGEKSKDQDDQKPGPSERSRATKSGSRGTERTVVMDKSKGVPVISVKTSGSKERASKSQDRKSASREKRSVVSFDKVKEPRKSRDSESHSRVRERSEREQRMQAQWEREERERLEIARERLAFQRQRLERERMERERLERERMHVEHERRREQERIHREREELRRQQELRYEQERRPAVRRPYDLDRRDDAYWPEAKRAALDERYHSDFNRQDRFHDFDHRDRGRYPDHSVDRREGSRSMMGEREGQHYPERHGGPERHGRDSRDGWGGYGSDKRMSEGRGLPPPPRRDWGDHGRREDDRSWQGTADGGMMDRDHKRWQGGERSMSGHSGPGHMMNRGGMSGRGSFAPGGASRGHPIPHGGMQGGFGGQSRGSRPSDARFTRRY
B3: RCC1 (protein, UniProt P18754 2-421, looked up)
Regulator of chromosome …: SPKRIAKRRSPPADAIPKSKKVKVSHRSHSTEPGLVLTLGQGDVGQLGLGENVMERKKPALVSIPEDVVQAEAGGMHTVCLSKSGQVYSFGCNDEGALGRDTSVEGSEMVPGKVELQEKVVQVSAGDSHTAALTDDGRVFLWGSFRDNNGVIGLLEPMKKSMVPVQVQLDVPVVKVASGNDHLVMLTADGDLYTLGCGEQGQLGRVPELFANRGGRQGLERLLVPKCVMLKSRGSRGHVRFQDAFCGAYFTFAISHEGHVYGFGLSNYHQLGTPGTESCFIPQNLTSFKNSTKSWVGFSGGQHHTVCMDSEGKAYSLGRAEYGRLGLGEGAEEKSIPTLISRLPAVSSVACGASVGYAVTKDGRVFAWGMGTNYQLGTGQDEDAWSPVEMMGKQLENRVVLSVSSGGQHTVLLVKDKEQS
B4: CNN3 (protein, UniProt Q15417 1-329, looked up)
Calponin-3: MTHFNKGPSYGLSAEVKNKIASKYDHQAEEDLRNWIEEVTGMSIGPNFQLGLKDGIILCELINKLQPGSVKKVNESSLNWPQLENIGNFIKAIQAYGMKPHDIFEANDLFENGNMTQVQTTLVALAGLAKTKGFHTTIDIGVKYAEKQTRRFDEGKLKAGQSVIGLQMGTNKCASQAGMTAYGTRRHLYDPKMQTDKPFDQTTISLQMGTNKGASQAGMLAPGTRRDIYDQKLTLQPVDNSTISLQMGTNKVASQKGMSVYGLGRQVYDPKYCAAPTEPVIHNGSQGTGTNGSEISDSDYQAEYPDEYHGEYQDDYPRDYQYSDQGIDY
B5: SRP9 (protein, UniProt P49458 2-86, looked up)
Signal recognition particle 9 …: PQYQTWEEFSRAAEKLYLADPMKARVVLKYRHSDGNLCVKVTDDLVCLVYKTDQAQDVKKIEKFHSQLMRLMVAKEARNVTMETE

Experiments:
[1] = molecular target: T1, G9a and GLP; experiment: Triple SILAC pull-down after UNC0638 treatment of 293T cells, DMSO/UNC0638 ratio of protein captured by 3×MBT; format: cell-based; set-up: endogenous in cells; host or cells: HEK 293T; details: for Relative to UNC0638 UNC Heavy / Relative to UNC0638 UNC Light: SILAC ratio DMSO/UNC0638 of protein pulled down with 3xMBT; for Relative to UNC0638 UNC Heavy: UNC0638 in heavy SILAC media; for Relative to UNC0638 UNC Light: UNC0638 in light SILAC media; for Relative to UNC0638 Average: average of UNC Light and UNC Heavy experiments;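 for all read-outs here: mass spectrometry (Q-Exactive) SILAC quantitation, DMSO/UNC0638 ratio computed after subtracting 3×MBTD355N mutant pull-down background, only proteins with at least twofold 3×MBT over mutant signal considered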
[2] = tested on: 3×MBT domain of L3MBTL1; experiment: Triple SILAC pull-down, 3xMBT/3xMBTD355N ratio (cytoplasmic, nuclear and chromatin fractions of 293T cells); format: binding, human; details: SILAC ratio, pull-down 3xMBT vs 3xMBTD355N; for 3xMBT/D355N UNC Heavy: experiment with UNC0638 in heavy SILAC media; for 3xMBT/D355N UNC Light: experiment with UNC0638 in light SILAC media;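 for all read-outs here: proteins quantified with MaxQuant, requiring at least two unique peptides and quantification in both label directions, normalized to the mean of proteins from a digested loading control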

Molecule	Relative to UNC0638 UNC Heavy [1] [log base 2]	Relative to UNC0638 UNC Light [1] [log base 2]	Relative to UNC0638 Average [1] [log base 2]	3xMBT/D355N UNC Heavy [2] [log base 2]	3xMBT/D355N UNC Light [2] [log base 2]
B1	0.28	0.18	0.23	2.35	2.55
B2	0.11	0.35	0.23	2.38	2.76
B3	0.18	0.29	0.24	2.15	2.25
B4	0.61	−0.15	0.23	2.36	2.35
B5	0.46	0.01	0.23	1.88	1.52
